Test results reported in patent US20090011988A1 (Genentech, published 2009).
Positions of bridges follow the written chain, without caps; N, C: chain ends. No end group written: not given here.

Legend:
[1] = target: T1, human IGFBP-1 (human, UniProt P08833 26-259); test: BIAcore inhibition assay
T1 sequence (looked up): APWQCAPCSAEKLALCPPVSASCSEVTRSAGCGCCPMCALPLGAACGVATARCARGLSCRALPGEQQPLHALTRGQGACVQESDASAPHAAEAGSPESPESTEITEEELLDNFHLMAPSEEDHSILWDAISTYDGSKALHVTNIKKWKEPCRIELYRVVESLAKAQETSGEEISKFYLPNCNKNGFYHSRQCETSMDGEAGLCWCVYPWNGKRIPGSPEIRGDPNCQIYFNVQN

[2] = target: T1, human IGFBP-1; test: BIAcore inhibition assay; remark: listed apart in the source
Protocol: Peptides were assayed in a BIAcore™ assay as described in WO 98/45427, supra.

fold potency reduction, IC50 (BP1-01)/IC50 (mut) [2]: > 360
Binder: Ac-LEWLAEKYEG (linker 2-9 via 1,5‑diaminopentane) [(i+7)B]
binding result [1]: no binding (tested: >360-fold weaker than BP1-01)
